The Kd is the concentration at which binding is half-saturated. As a reminder, the stoichiometry N is a count of units in the complex or per binding partner.

Data set [1] deals with the molecule itself. In words: SEC; Superdex 75, 50 mM sodium phosphate pH 7.0, 150 mM NaCl; apparent molecular weight from the elution volume; self-association. In general terms: Size exclusion chromatography separates by hydrodynamic size, large species first.
Data set [2] has as its target T1, GapR (Caulobacter crescentus, UniProt B8H4R9 1-89).
T1 sequence: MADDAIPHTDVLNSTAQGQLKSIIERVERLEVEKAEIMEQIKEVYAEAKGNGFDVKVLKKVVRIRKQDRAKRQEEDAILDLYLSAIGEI
In words: ITC; ITC: 50 mM sodium phosphate pH 7.0, 200 mM NaCl, 4 C; 25 uM GapR tetramer in cell, 0.25 mM DNA injected; NMR: 0.1 mM tetramer, 0.02-0.1 mM DNA. To be noted: protein: recombinant, tags: C-terminal His6 (pET-21a), chain copies: 4, blunt.

Data set [3] concerns the target T2, GapR G87A (Caulobacter crescentus, UniProt B8H4R9 1-89, G87A).
T2 sequence: T1 sequence with G87A
In words: NMR (1H-15N HSQC titration); minor peaks disappear on DNA addition; ITC: 50 mM sodium phosphate pH 7.0, 200 mM NaCl, 4 C; 25 uM GapR tetramer in cell, 0.25 mM DNA injected; NMR: 0.1 mM tetramer, 0.02-0.1 mM DNA. Particulars: protein: recombinant; tags: C-terminal His6 (pET-21a); chain copies: 4; blunt.

Data set [4] concerns the molecule itself. Kind of data set: cross-linking; 0.1 mM protein, EGS 0.5 and 1 mM, 50 mM sodium phosphate, 150 mM NaCl, pH 7.2, room temperature, 10 min; self-association.
Data set [5] deals with T1, GapR. Kind of data set: ITC; netropsin-bound DNA; ITC: 50 mM sodium phosphate pH 7.0, 200 mM NaCl, 4 C; 25 uM GapR tetramer in cell, 0.25 mM DNA injected; NMR: 0.1 mM tetramer, 0.02-0.1 mM DNA. Particulars: protein: recombinant; tags: C-terminal His6 (pET-21a); chain copies: 4; blunt. For orientation: Isothermal titration calorimetry measures the heat released or taken up as one component is titrated into another.

Data set [6] deals with the molecule itself. In words: SEC-MALS; Superdex-75 HR 10/30, 50 mM sodium phosphate pH 7.0, 150 mM NaCl, 25°C; free GapR 0.5, 1.0 and 2.0 mg/mL, GapR^ΔC17 2.0 mg/ml; self-association.

Where a chain is given by its changes, count along the chain named.

B1: GapR^ΔN10 (residues 11-89) (domain or fragment, C. crescentus, UniProt B8H4R9 11-89, looked up)
chain: VLNSTAQGQLKSIIERVERLEVEKAEIMEQIKEVYAEAKGNGFDVKVLKKVVRIRKQDRAKRQEEDAILDLYLSAIGEI
notes: GapR of Caulobacter crescentus, gene CCNA_03428, residues 11-89; pET-28a(+) with a thrombin-cleavable N-terminal His6-tag; the tag was removed by thrombin; also called N-terminal truncation mutant; source: E. coli Rosetta (DE3), purified (Ni-NTA, thrombin cleavage, size-exclusion chromatography); not shown: His6, N-terminal, cleaved
With B1, in data set [1], the binding result was “binds”.

B2: seq1 (dsDNA)
DNA 1: GCGAAATTGATCG
DNA 2: CGATCAATTTCGC
Take B2: the Kd in data set [2] worked out at 72 ± 24 nM.

B3: 10A (dsDNA)
DNA 1: CCGAAAAAAAAAACGC
DNA 2: GCGTTTTTTTTTTCGG
B3: the binding result in data set [3] was “binds”. Besides, the Kd in data set [2] turned out to be 11.6 ± 2.5 nM.

B4: GapR (growth-associated A/T-binding protein involved in regulation), full length, residues 1-89 (natural protein, C. crescentus, UniProt B8H4R9 1-89, looked up)
chain: T1 sequence
notes: GapR of Caulobacter crescentus, gene CCNA_03428, residues 1-89 (full length); theoretical monomer mass 11.2 kDa as printed; A selenomethionyl derivative was used for MAD phasing of the GapR/10A complex structure; 15N- or 13C-labelled for NMR; also called free GapR; full-length GapR; source: E. coli Rosetta (DE3), purified (Ni-NTA, size-exclusion chromatography on Superdex 75)
Regarding B4, the “stoichiometry N” value in data set [4] is 4.

B5: 6CpG (dsDNA)
DNA 1: CGCGCGCGCGCG
DNA 2: CGCGCGCGCGCG
In the case of B5, in data set [2] (self-complementary), the dissociation constant (Kd) amounted to 118 ± 17 nM.

B6: seq2 (dsDNA)
DNA 1: CGTGTTTTCGG
DNA 2: CCGAAAACACG
Take B6: in data set [2], the Kd worked out at 72 ± 19 nM.

B7: GapR^ΔC8 (residues 1-81) (domain or fragment, C. crescentus, UniProt B8H4R9 1-81, looked up)
chain: MADDAIPHTDVLNSTAQGQLKSIIERVERLEVEKAEIMEQIKEVYAEAKGNGFDVKVLKKVVRIRKQDRAKRQEEDAILDL
notes: GapR of Caulobacter crescentus, gene CCNA_03428, residues 1-81; also called C-terminal truncation mutant; source: E. coli Rosetta (DE3), purified (Ni-NTA, size-exclusion chromatography)
For B7, the “stoichiometry N” value in data set [1] stood at 2.

B8: 5ApT (dsDNA)
DNA 1: CCGATATATATATCGC
DNA 2: GCGATATATATATCGG
With B8, the Kd was determined as 16.6 ± 4.5 nM in data set [5] and 12.3 ± 8.9 nM in data set [2].

B9: GapR^ΔC17 (residues 1-72) (domain or fragment, C. crescentus, UniProt B8H4R9 1-72, looked up)
chain: MADDAIPHTDVLNSTAQGQLKSIIERVERLEVEKAEIMEQIKEVYAEAKGNGFDVKVLKKVVRIRKQDRAKR
notes: GapR of Caulobacter crescentus, gene CCNA_03428, residues 1-72; theoretical dimer mass 18.6 kDa as printed; also called C-terminal truncation mutant; source: E. coli Rosetta (DE3), purified (Ni-NTA, size-exclusion chromatography)
In the case of B9, the “stoichiometry N” value in data set [6] was found to be 2.

B10: 11AT (dsDNA)
DNA 1: TTAAAATTAAA
DNA 2: TTTAATTTTAA
On to B10, for which the Kd in data set [2] was determined as 12.3 ± 4.5 nM.

The values are drawn from article PMC7498317, “GapR binds DNA through dynamic opening of its tetrameric interface” (Nucleic Acids Research, 2020).
